T1: angiotensin converting enzyme (ACE) (UniProt P12821)
T1 chain: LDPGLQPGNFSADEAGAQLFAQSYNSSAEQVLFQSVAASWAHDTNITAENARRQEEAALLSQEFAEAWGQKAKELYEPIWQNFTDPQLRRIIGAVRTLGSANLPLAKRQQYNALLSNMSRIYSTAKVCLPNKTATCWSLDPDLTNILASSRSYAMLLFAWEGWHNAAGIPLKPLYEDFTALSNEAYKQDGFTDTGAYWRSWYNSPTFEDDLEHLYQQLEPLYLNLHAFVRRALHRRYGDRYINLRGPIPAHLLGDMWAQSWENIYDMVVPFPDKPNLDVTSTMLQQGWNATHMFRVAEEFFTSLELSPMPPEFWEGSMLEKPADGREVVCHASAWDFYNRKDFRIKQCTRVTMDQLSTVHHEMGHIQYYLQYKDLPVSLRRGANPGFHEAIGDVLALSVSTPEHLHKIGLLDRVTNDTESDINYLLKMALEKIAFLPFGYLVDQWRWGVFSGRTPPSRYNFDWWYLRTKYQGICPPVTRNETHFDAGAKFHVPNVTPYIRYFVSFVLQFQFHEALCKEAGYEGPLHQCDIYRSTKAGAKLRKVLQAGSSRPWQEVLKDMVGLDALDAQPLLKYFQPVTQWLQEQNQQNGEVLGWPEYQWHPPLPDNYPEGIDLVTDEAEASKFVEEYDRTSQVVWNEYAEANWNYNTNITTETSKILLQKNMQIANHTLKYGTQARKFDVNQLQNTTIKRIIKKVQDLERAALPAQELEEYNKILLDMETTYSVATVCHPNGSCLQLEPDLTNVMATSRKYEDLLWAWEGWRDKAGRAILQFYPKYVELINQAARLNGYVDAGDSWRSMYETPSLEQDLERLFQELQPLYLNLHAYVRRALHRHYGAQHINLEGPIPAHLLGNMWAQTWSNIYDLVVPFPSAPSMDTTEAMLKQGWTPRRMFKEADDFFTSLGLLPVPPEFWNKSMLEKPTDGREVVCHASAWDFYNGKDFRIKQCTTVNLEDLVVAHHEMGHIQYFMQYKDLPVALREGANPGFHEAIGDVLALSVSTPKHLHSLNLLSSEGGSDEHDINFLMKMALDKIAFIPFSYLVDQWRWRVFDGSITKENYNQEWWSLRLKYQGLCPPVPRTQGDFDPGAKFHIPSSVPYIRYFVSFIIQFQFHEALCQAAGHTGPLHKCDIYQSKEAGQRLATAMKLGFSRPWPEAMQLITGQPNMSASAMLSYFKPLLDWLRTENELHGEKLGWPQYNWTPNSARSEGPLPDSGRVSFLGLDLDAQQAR


Target: T1, angiotensin converting enzyme (ACE)
Experiment: other, ACE inhibition

| Binder | IC50 |
| --- | --- |
| YY | 257 µM |
| GLF | 83 µM |
| TYA | 526 µM |
| PDT | 272 µM |
| GNF | 26.9 µM |
| WN | 368 µM |
| VVN | 77 µM |
| NDEG | 768 µM |
| TF | 46.2 µM |
| FV | 979 µM |
| KK | 921 µM |
| TSF | 15.6 µM |
| FVNHF | 51.1 µM |
| NSL | 64.9 µM |
| VGGS | 35.5 µM |
| LF | 83 µM |
| LL | 345 µM |

From patent US8673862 (dated 2014)
